Test results reported in publication PMC11674972.
Values joined by “and” are separate entries in the source; they are usually repeats but may differ in a detail not shown here. Equal values may be shown once.

Key:
[1] = biological target: FcγRI (Biotinylated Human CD64 Protein, His, Avitag) (human) (UniProt P12314); assay: SPR; Biacore T200; biotinylated FcγRI immobilised on streptavidin chip SA; AVT 1.875-30 nM; 1x HBS-EP pH 7.4, 22 °C; double referenced; steady-state affinity algorithm
[2] = biological target: FcγRI (Biotinylated Human CD64 Protein, His, Avitag) (human) (UniProt P12314); assay: SPR; Biacore T200; biotinylated FcγRI immobilised on streptavidin chip SA; AVT 1.875-30 nM; 1x HBS-EP pH 7.4, 22 °C; 1:1 Langmuir binding model (fit poorer than the heterogeneous ligand model)
[3] = biological target: FcγRI (Biotinylated Human CD64 Protein, His, Avitag) (human) (UniProt P12314); assay: SPR; Biacore T200; biotinylated FcγRI immobilised on streptavidin chip SA (target 200 RU); AVT 1.875-30 nM injected 60 s at 50 uL/min; 1x HBS-EP pH 7.4, 22 °C; double referenced; heterogeneous ligand kinetics model

UniProt P12314, sequence (P12314 16-292): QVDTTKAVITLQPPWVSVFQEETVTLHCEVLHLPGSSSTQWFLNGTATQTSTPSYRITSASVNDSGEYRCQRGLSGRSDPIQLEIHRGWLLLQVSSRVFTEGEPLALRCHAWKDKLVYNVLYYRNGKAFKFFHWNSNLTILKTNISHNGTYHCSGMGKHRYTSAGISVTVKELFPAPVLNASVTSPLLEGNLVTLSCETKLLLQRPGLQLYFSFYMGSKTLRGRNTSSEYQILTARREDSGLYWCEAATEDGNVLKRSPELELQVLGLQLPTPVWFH

With Bevacizumab (Avastin) (antibody) the Kd [1] was 13500 pM, the Kd [2] was 420 pM and the KD, set 1 (heterogeneous ligand model) [3] was 2.67 pM and 1.55 pM and 2.59 pM. For the same substance, the KD, set 1 (heterogeneous ligand model), mean [3] was 2.27 pM, the ka, set 1 (heterogeneous ligand model) [3] was 333000 M⁻¹ s⁻¹ and 276000 M⁻¹ s⁻¹ and 335000 M⁻¹ s⁻¹ and the ka, set 1 (heterogeneous ligand model), mean [3] was 315000 M⁻¹ s⁻¹. The kd, set 1 (heterogeneous ligand model) [3] was 8.9e-07 s⁻¹ and 4.27e-07 s⁻¹ and 8.67e-07 s⁻¹ and the kd, set 1 (heterogeneous ligand model), mean [3] was 7.28e-07 s⁻¹.
